In the supplement of paper PMC11246515:
± gives the standard deviation of the averaged measurements.

Experiment: total protein half-life in vivo (active degradation + dilution); higher = more stable protein
[1] = E. coli NCM3722 delta-clpP, growth: N-lim chemostat, doubling time 6 h
[2] = E. coli NCM3722 delta-hslV, growth: N-lim chemostat, doubling time 6 h
[3] = E. coli NCM3722 delta-lon, growth: N-lim chemostat, doubling time 6 h
[4] = E. coli NCM3722 delta-smpB, growth: N-lim chemostat, doubling time 6 h
[5] = wild type E. coli NCM3722, growth: C-lim chemostat, doubling time 3 h
[6] = wild type E. coli NCM3722, growth: C-lim chemostat, doubling time 6 h
[7] = wild type E. coli NCM3722, growth: C-lim chemostat, doubling time 12 h
[8] = wild type E. coli NCM3722, growth: N-lim chemostat, doubling time 6 h
[9] = wild type E. coli NCM3722, growth: N-lim chemostat, doubling time 12 h
[10] = wild type E. coli NCM3722, growth: P-lim chemostat, doubling time 6 h
[11] = wild type E. coli NCM3722, growth: P-lim chemostat, doubling time 12 h
[12] = E. coli NCM3722 delta-clpP delta-lon delta-hslV, growth: N-lim chemostat, doubling time 6 h

Row | Sequence | total protein half-life in vivo [1] | total protein half-life in vivo [2] | total protein half-life in vivo [3] | total protein half-life in vivo [4] | total protein half-life in vivo [5] | total protein half-life in vivo [6] | total protein half-life in vivo [7] | total protein half-life in vivo [8] | total protein half-life in vivo [9] | total protein half-life in vivo [10] | total protein half-life in vivo [11] | total protein half-life in vivo [12]
1 | MTTMLEVAKRAGVSKATVSRVLSGNGYVSQETKDRVFQAVEESGYRPNLLARNLSAKSTQTLGLVVTNTLYHGIYFSELLFHAARMAEEKGRQLLLADGKHSAEEERQAIQYLLDLRCDAIMIYPRFLSVDEIDDIIDAHSQPIMVLNRRLRKNSSHSVWCDHKQTSFNAVAELINAGHQEIAFLTGSMDSPTSIERLAGYKDALAQHGIALNEKLIANGKWTPASGAEGVEMLLERGAKFSALVASNDDMAIGAMKALHERGVAVPEQVSVIGFDDIAIAPYTVPALSSVKIPVTEMIQEIIGRLIFMLDGGDFSPPKTFSGKLIRRDSLIAPSR | 4.95 h | 3.46 ± 0.2 h | 4.26 ± 0.14 h | 3.44 ± 0.13 h | 3 ± 0.72 h | 4.91 ± 0.77 h | 8.06 ± 0.59 h | 3.59 h | 5.73 ± 0.34 h | 2.66 ± 0.17 h | 7.06 ± 0.59 h | 
2 | MTTPTFDTIEAQASYGIGLQVGQQLSESGLEGLLPEALVAGIADALEGKHPAVPVDVVHRALREIHERADAVRRQRFQAMAAEGVKYLEENAKKEGVNSTESGLQFRVINQGEGAIPARTDRVRVHYTGKLIDGTVFDSSVARGEPAEFPVNGVIPGWIEALTLMPVGSKWELTIPQELAYGERGAGASIPPFSTLVFEVELLEIL [P0A9L3] | 4.54 ± 0.58 h | 3.72 ± 0.16 h | 5 ± 0.44 h | 3.45 ± 0.19 h | 3.06 ± 0.2 h | 5.67 ± 0.37 h | 10.4 ± 0.65 h | 3.59 ± 0.1 h | 5.3 ± 0.15 h | 5.591 ± 0.04 h | 11 ± 0.86 h | 4.93 ± 0.29 h
3 | MTTQRSPGLFRRLAHGSLVKQILVGLVLGILLAWISKPAAEAVGLLGTLFVGALKAVAPILVLMLVMASIANHQHGQKTNIRPILFLYLLGTFSAALAAVVFSFAFPSTLHLSSSAGDISPPSGIVEVMRGLVMSMVSNPIDALLKGNYIGILVWAIGLGFALRHGNETTKNLVNDMSNAVTFMVKLVIRFAPIGIFGLVSSTLATTGFSTLWGYAQLLVVLVGCMLLVALVVNPLLVWWKIRRNPFPLVLLCLRESGVYAFFTRSSAANIPVNMALCEKLNLDRDTYSVSIPLGATINMAGAAITITVLTLAAVNTLGIPVDLPTALLLSVVASLCACGASGVAGGSLLLIPLACNMFGISNDIAMQVVAVGFIIGVLQDSCETALNSSTDVLFTAAACQAEDDRLANSALRN [P0AGE4] | 5.78 h | 6.04 h | 5.28 h | 6.21 ± 0.49 h | 3.36 h | 5.87 ± 0.55 h | 12.3 ± 0.23 h | 5.94 ± 0.44 h | 11.6 h | 5.5355 ± 0.00083 h | 10.7 ± 0.53 h | 5.56 ± 0.69 h
4 | MTTQTVSGRRYFTKAWLMEQKSLIALLVLIAIVSTLSPNFFTINNLFNILQQTSVNAIMAVGMTLVILTSGIDLSVGSLLALTGAVAASIVGIEVNALVAVAAALALGAAIGAVTGVIVAKGRVQAFIATLVMMLLLRGVTMVYTNGSPVNTGFTENADLFGWFGIGRPLGVPTPVWIMGIVFLAAWYMLHHTRLGRYIYALGGNEAATRLSGINVNKIKIIVYSLCGLLASLAGIIEVARLSSAQPTAGTGYELDAIAAVVLGGTSLAGGKGRIVGTLIGALILGFLNNGLNLLGVSSYYQMIVKAVVILLAVLVDNKKQ [P0AGI1] | 6.38 ± 1.3 h | 5.86 ± 0.5 h | 5.86 ± 0.38 h | 6.072 ± 0.021 h | 2.957 ± 0.015 h | 5.74 ± 0.19 h | 12.5 ± 2.2 h | 6.28 ± 0.51 h | 10.5 ± 3.5 h | 5.48 ± 0.19 h | 13.2 ± 1.3 h | 6.66 ± 0.66 h
5 | MTTQYGFFIDSSRCTGCKTCELACKDFKDLGPEVSFRRIYEYAGGDWQEDNGVWHQNVFAYYLSISCNHCDDPACTKVCPSGAMHKREDGFVVVDEDVCIGCRYCHMACPYGAPQYNAEKGHMTKCDGCYSRVAEGKQPICVESCPLRALEFGPIEELRQKHGTLAAVAPLPRAHFTKPNIVIKPNANSRPTGDTTGYLANPEEV [P0AAJ1] |  |  |  |  |  |  |  |  |  |  |  | 4.03 h
6 | MTTQYGFFIDSSRCTGCKTCELACKDYKDLTPEVSFRRIYEYAGGDWQEDNGVWHQNVFAYYLSISCNHCEDPACTKVCPSGAMHKREDGFVVVDEDVCIGCRYCHMACPYGAPQYNETKGHMTKCDGCYDRVAEGKKPICVESCPLRALDFGPIDELRKKHGDLAAVAPLPRAHFTKPNIVIKPNANSRPTGDTTGYLANPKEV |  |  |  |  |  | 6.7 h |  |  |  |  |  | 5.26 h
